Columns and labels:
rat PTHR-1 (GR35 cells) = molecular target: T1, rat PTHR-1 (GR35 cells) (Rattus norvegicus, UniProt P25961); assay: Washout assay of Gs-biased PTHR1 agonists (cAMP response after washout); type: cell-based; settings: compared with PTH (1-34)
T1 construct: expressed in transfected cells
T1 sequence (P25961 27-591): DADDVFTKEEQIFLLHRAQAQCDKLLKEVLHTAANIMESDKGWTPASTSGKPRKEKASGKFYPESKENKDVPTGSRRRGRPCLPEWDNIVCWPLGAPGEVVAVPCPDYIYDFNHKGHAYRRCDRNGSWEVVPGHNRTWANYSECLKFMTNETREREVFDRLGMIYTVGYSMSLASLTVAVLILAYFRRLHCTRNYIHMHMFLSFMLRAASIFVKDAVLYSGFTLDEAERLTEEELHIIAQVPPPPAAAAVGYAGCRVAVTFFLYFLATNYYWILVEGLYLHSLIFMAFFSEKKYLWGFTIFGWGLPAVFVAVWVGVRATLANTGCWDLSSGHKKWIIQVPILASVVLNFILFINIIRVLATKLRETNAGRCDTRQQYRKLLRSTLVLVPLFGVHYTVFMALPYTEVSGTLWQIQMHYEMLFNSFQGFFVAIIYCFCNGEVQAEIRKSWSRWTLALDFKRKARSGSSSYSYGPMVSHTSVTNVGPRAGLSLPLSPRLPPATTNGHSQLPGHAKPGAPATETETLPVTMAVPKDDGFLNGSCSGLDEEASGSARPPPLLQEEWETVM
Description: These “washout assays”^7,8,21 assess the ability of the peptides to form stable ligand-receptor complexes capable of stimulating prolonged cAMP responses. The ability of a peptide to elicit prolonged cAMP responses via PTHR-1 following washout typically correlates with the affinity of that peptide for the R^0 state.^7,8,21
HEK293 cell monolayers expressing rat PTHR-1 (GR35 cells) were treated with ligand in for 14 minutes. This buffer was then discarded, and the cell monolayer was rinsed (2×). Buffer containing luciferin was introduced for 120 minutes. Luminescence response was recorded before and after washout, with luminescence readings recorded every 2 minutes. The area under the curve (AUC) for luminescence response curve was determined using GraphPad Prism.
Data were processed by using the Microsoft Excel and GraphPad Prism 4.0 software packages. Data from binding and cAMP dose—response assays were analyzed using a sigmoidal dose—response model with variable slope. Washout responses were assessed by quantifying the area under the luminescence response curve (AUC) following washout. Post-washout AUC was normalized by dividing the post-washout AUC by the pre-washout AUC. Paired data sets were statistically compared by using Student's t test (two-tailed) assuming unequal variances for the two sets.

PTHR1 = molecular target: T2, PTHR1 (Homo sapiens, UniProt Q03431); assay: Functional selectivity (Gs activation/cAMP production vs βarr recruitment); type: cell-based; parameters: expressed in transfected cells; host or cells: cells stably expressing PTHR1; settings: cAMP activation vs βarr1 and βarr2 recruitment, relative to PTH (1-34)
T2 sequence (Q03431 27-593): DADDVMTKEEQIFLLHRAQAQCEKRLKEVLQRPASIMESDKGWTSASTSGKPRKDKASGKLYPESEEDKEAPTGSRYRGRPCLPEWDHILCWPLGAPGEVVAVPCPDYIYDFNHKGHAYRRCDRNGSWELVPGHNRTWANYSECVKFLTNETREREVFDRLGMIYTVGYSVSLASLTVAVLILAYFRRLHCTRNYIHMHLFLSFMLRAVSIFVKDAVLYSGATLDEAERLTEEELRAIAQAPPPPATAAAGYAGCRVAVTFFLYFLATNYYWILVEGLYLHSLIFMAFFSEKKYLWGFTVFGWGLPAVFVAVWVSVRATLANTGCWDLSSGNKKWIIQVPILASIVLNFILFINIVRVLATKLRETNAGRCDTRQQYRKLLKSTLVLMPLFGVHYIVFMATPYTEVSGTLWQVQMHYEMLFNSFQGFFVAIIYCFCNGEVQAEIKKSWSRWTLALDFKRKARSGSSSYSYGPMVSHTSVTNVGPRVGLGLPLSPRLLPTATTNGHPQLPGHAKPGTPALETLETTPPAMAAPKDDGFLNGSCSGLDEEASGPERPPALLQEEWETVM
Description: More specifically, the initial studies that yielded the compounds disclosed and claimed herein were conducted to determine whether there is a correlation between βarr recruitment and receptor residence time of a PTHR1 agonist. The initial studies were thus conducted in two steps. First, the functional selectivity (Gs activation as indicated by cAMP production vs. βarr recruitment) of several PTHR1 agonists that display substantial differences in signaling duration were evaluated. Second, novel PTHR1 agonists were designed that have high functional selectivity and evaluated the signaling duration of these biased agonists.
The functional selectivity of BA058 is more significant than that of PTHrP. […] LA-PTH is a long-acting PTH analog. […] The middle panels in FIG. 2 are graphs depicting, from left-to-right: βarr1 and βarr2 recruitment, presented as normalized BRET signals (bioluminescence resonance energy transfer) as a function of the log of the peptide concentration, and cAmp activation presented as normalized RLU signals (relative light units) as a function of the log of the peptide concentration. Red=PTH. Orange=LA=LA−PTH. Blue=BA058. Green=PTHrP. (BRET assays are well known and suitable kits are available commercially. See, for example, Promega's “NanoBRET” kits, catalogs nos. N1821 and N1811; Promega Corporation, Fitchburg, Wis.). The table at the bottom of FIG. 2 presents the pEC50 and Emax values for the […] and βarr2 recruitment and cAMP activation. FIG. 3 presents the data for the bias of the activity—either toward βarr recruitment or cAMP activation.
Incorporating (R*)-β^2Leu/(D)-Leu at the 7th position or (R*)-β^2Nle at the 8th position leads to high Gs-biased agonism. […] (D)-Nle is poorly tolerated at the 8th position for both cAMP signaling and βarr recruitment. The top panels in FIG. 5 are graphs depicting, from left-to-right: βarr1 and βarr2 recruitment, presented as normalized BRET signals as a function of the log of the peptide concentration, and cAmp activation presented as normalized RLU signals as a function of the log of the peptide concentration. […]

- signaling duration after washout (in words) (rat PTHR-1 (GR35 cells)): more transient signaling than PTH (1-34)
Substance: Ligand 12: PTH(1-34) analogue with replaced residue at position 8 (character image); highly Gs-biased (SVSEIQLXHNLGKHLNSMERVEWLRKKLQDVHNF; non-natural residue at position 8; MOD_RES (8)..(8) X at position 8 is (R*)-Beta-2-Norleucine.)
- signaling bias / functional selectivity (in words) (PTHR1): strongly biased toward cAMP activation relative to both βarr1 and βarr2 recruitment

Reference: patent US11780901B2, “Analogues of parathyroid hormone (1-34) that function as agonists of the parathyroid hormone receptor-1 and display modified activity profiles” (Wisconsin Alumni Research Foundation, priority 2013, dated 2023)
